Reference: patent US20200197440A1 (LENTIGEN TECHNOLOGY, published 2020)

B1: CAR construct LTG2098 (hScFv aCD38 CD8 TM 4-1BB CD3 zeta) (other)
chain: QVQLQQSGPGLVKPSQTLSLTCVISGDSVSSNSAAWNWIRQSPSRGLEWLGRTYYRSKWHNDYAVSVESRIIVNPDTSKNQFSLQLNSVTPEDTAVYYCARDPGYFYGLDVWGQGTMVTVSSGGGGSGGGGSGGGGSNFMLTQPHSVSESPGKTVTIPCTRSSGTIADYYVQWYQQRPDSSPIIVIYDDNQRPSGVPDRFSGSIDSSSNSASLTISGLKTEDEAAYYCQSYDSTNHWVFGGGTKLTVLGAAATTTPAPRPPTPAPTIASQPLSLRPEACRPAAGGAVHTRGLDFACDIYIWAPLAGTCGVLLLSLVITLYCKRGRKKLLYIFKQPFMRPVQTTQEEDGCSCRFPEEEEGGCELRVKFSRSADAPAYQQGQNQLYNELNLGRREEYDVLDKRRGRDPEMGGKPRRKNPQEGLYNELQKDKMAEAYSEIGMKGERRRGKGHDGLYQGLSTATKDTYDALHMQALPPR
notes: Chimeric antigen receptor on transduced human primary T cells
B2: CAR construct LTG2090 (hScFv aCD38 CD8 TM 4-1BB CD3 zeta) (other)
chain: EVQLVESGGGSVQPGGSLRLSCAASEFTFSSYWMHWVRQAPGKGLEWVAVISYDGAKKYYADSVKGRFTISRDNSKNTLYLQMNSLRAEDTAVYYCARDDGSGGFDYWGQGTLVTVSSGGGGSGGGGSGGGGSDIVMTHTPLSLSVTPGQPASISCKSSQSLLHSDGKTYLYWYLQKPGQPPQLLIYEVSNRFSGVPDRYSGSGSGTDFTLKISRVEAEDVGVYYCMQSIQLPLTFGGGTKLEIKAAATTTPAPRPPTPAPTIASQPLSLRPEACRPAAGGAVHTRGLDFACDIYIWAPLAGTCGVLLLSLVITLYCKRGRKKLLYIFKQPFMRPVQTTQEEDGCSCRFPEEEEGGCELRVKFSRSADAPAYQQGQNQLYNELNLGRREEYDVLDKRRGRDPEMGGKPRRKNPQEGLYNELQKDKMAEAYSEIGMKGERRRGKGHDGLYQGLSTATKDTYDALHMQALPPR
notes: as for B1
B3: CAR construct LTG2099 (hScFv aCD38 CD8 TM 4-1BB CD3 zeta) (other)
chain: QVTLKESGPVLVKPTETLTLTCTFSGFSLSTSGVGVAWIRQPPGKDLEWLALIYWDDDKRYSPSLESRLTITKDTSKNQVALTMSDMDPVDTATYYCARGDYWGRLDYWGQGTLVTVSSGGGGSGGGGSGGGGSDIQLTQSPSSLSASIGDRVTITCQASEDINNYLNWYQQKPGKAPKLLIYDASNLETGVPSRFSGSGSGTDFTFTINSLQPEDIATYYCQQFDNMPLTFGGGTKLEIKAAATTTPAPRPPTPAPTIASQPLSLRPEACRPAAGGAVHTRGLDFACDIYIWAPLAGTCGVLLLSLVITLYCKRGRKKLLYIFKQPFMRPVQTTQEEDGCSCRFPEEEEGGCELRVKFSRSADAPAYQQGQNQLYNELNLGRREEYDVLDKRRGRDPEMGGKPRRKNPQEGLYNELQKDKMAEAYSEIGMKGERRRGKGHDGLYQGLSTATKDTYDALHMQALPPR
notes: as for B1

Experiments:
[1] = target: T1, CD38-His peptide (Thermo Fisher Scientific) (UniProt P28907 43-300, limits assumed); test: flow cytometry of LV-transduced primary T cells stained with CD38-His, then anti-His PE
T1 construct: Bought staining reagent, detected with anti-His-PE; also called CD38-His reagent; CD38-His tagged peptide; not shown: His tag

[2] = target: CD38 on CD38-positive tumor lines RPMI-8226 and MM1.S (UniProt P28907 1-300, limits assumed); test: cell-based or functional assay

Row | Binder | surface expression level, % CAR T+ (CD38-His staining) [1] [%] | tumor killing of RPMI-8226 at E:T ratio of 1:5 (so in the source) [2] [% tumor killing]
1 | B1 | > 75 | < 40
2 | B2 | > 45 | < 70
3 | B3 | > 65 | < 10
